Source: paper PMC5884809, “ETV2-TET1/TET2 Complexes Induce Endothelial Cell-Specific Robo4 Expression via Promoter Demethylation”

What was measured:
[1] = biological target: T1, ETV2 (UniProt O00321 1-342); experiment: EMSA; third strongest shift; abolished by 50-fold WT competitor; EMSA: 3 µl TNT ETV2, 30 min at 4 °C; 4% native polyacrylamide gel, 0.5x TBE, 120 V 2 h; binding buffer, salt and pH not stated; conditions: protein: ivt; label: 32P (probe); blunt
T1 sequence: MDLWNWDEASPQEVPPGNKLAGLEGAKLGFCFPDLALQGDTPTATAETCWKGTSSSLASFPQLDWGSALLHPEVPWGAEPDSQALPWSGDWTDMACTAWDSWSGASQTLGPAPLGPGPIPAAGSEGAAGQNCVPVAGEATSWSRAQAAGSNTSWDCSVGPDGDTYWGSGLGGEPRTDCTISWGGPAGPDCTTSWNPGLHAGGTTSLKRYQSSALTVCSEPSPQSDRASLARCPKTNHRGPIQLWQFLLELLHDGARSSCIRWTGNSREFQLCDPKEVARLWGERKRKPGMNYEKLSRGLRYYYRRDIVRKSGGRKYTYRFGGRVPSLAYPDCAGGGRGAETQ

[2] = biological target: T1, ETV2; experiment: competition; 50-fold excess vs ETS(1) probe, EMSA; EMSA: 3 µl TNT ETV2, 30 min at 4 °C; 4% native polyacrylamide gel, 0.5x TBE, 120 V 2 h; binding buffer, salt and pH not stated; conditions: protein: ivt; blunt
[3] = biological target: T1, ETV2; experiment: competition; 50-fold excess vs ETS(3) probe, EMSA; EMSA: 3 µl TNT ETV2, 30 min at 4 °C; 4% native polyacrylamide gel, 0.5x TBE, 120 V 2 h; binding buffer, salt and pH not stated; conditions: protein: ivt; blunt
[4] = biological target: T1, ETV2; experiment: EMSA; least pronounced shift of the four; abolished by 50-fold WT competitor; EMSA: 3 µl TNT ETV2, 30 min at 4 °C; 4% native polyacrylamide gel, 0.5x TBE, 120 V 2 h; binding buffer, salt and pH not stated; conditions: protein: ivt; label: 32P (probe); blunt
[5] = biological target: T1, ETV2; experiment: EMSA; strongest shift of the four; abolished by 50-fold WT competitor; EMSA: 3 µl TNT ETV2, 30 min at 4 °C; 4% native polyacrylamide gel, 0.5x TBE, 120 V 2 h; binding buffer, salt and pH not stated; conditions: protein: ivt; label: 32P (probe); blunt
[6] = biological target: T1, ETV2; experiment: competition; 50-fold excess vs ETS(2) probe, EMSA; EMSA: 3 µl TNT ETV2, 30 min at 4 °C; 4% native polyacrylamide gel, 0.5x TBE, 120 V 2 h; binding buffer, salt and pH not stated; conditions: protein: ivt; blunt ends, 2 internal mismatches as printed
[7] = biological target: T1, ETV2; experiment: EMSA; second strongest shift; abolished by 50-fold WT competitor; EMSA: 3 µl TNT ETV2, 30 min at 4 °C; 4% native polyacrylamide gel, 0.5x TBE, 120 V 2 h; binding buffer, salt and pH not stated; conditions: protein: ivt; label: 32P (probe); blunt
[8] = biological target: T1, ETV2; experiment: competition; 50-fold excess vs ETS(4) probe, EMSA; EMSA: 3 µl TNT ETV2, 30 min at 4 °C; 4% native polyacrylamide gel, 0.5x TBE, 120 V 2 h; binding buffer, salt and pH not stated; conditions: protein: ivt; blunt

B1: ETS(3) (dsDNA)
DNA 1: CAAAGCCGCTTCCCTCCTGGG
DNA 2: CCCAGGAGGGAAGCGGCTTTG
B1: binds [1].

B2: ETS(1)mut (dsDNA)
DNA 1: GGGCCAGGCACCTAGCATCGG
DNA 2: CCGATGCTAGGTGCCTGGCCC
B2: no binding [2].

B3: ETS(3)mut (dsDNA)
DNA 1: CAAAGCCGCTAGGCTCCTGGG
DNA 2: CCCAGGAGCCTAGCGGCTTTG
B3: no binding [3].

B4: ETS(4) (dsDNA)
DNA 1: CCCCTCCTTCCCTCTTCACTG
DNA 2: CAGTGAAGAGGGAAGGAGGGG
B4: binds [4].

B5: ETS(1) (dsDNA)
DNA 1: GGGCCAGGCAGGAAGCATCGG
DNA 2: CCGATGCTTCCTGCCTGGCCC
B5: binds [5].

B6: ETS(2)mut (dsDNA)
DNA 1: CATCGGTTAGGTTCAAGCCGC
DNA 2: GCGGCTTTGACCTAACCGATG
B6: no binding [6].

B7: ETS(2) (dsDNA)
DNA 1: CATCGGTTTCCTCAAAGCCGC
DNA 2: GCGGCTTTGAGGAAACCGATG
B7: binds [7].

B8: ETS(4)mut (dsDNA)
DNA 1: CCCCTCCTAGGCTCTTCACTG
DNA 2: CAGTGAAGAGCCTAGGAGGGG
B8: no binding [8].
